# In article doi:10.1101/2021.11.27.470173:
# Read-outs that look alike come from different tables or passages of the source.
# How the values were obtained:
# Test in all cases: SEC-MALS
# [1] = target: cyanide dihydratase CynD from Bacillus safensis PER-URP-08 (Bacillus safensis PER-URP-08) (UniProt P0DXY3)
# [2] = target: cyanide dihydratase CynD from Bacillus safensis PER-URP-08 (Bacillus safensis PER-URP-08) (UniProt P0DXY3); remark: listed apart in the source
# [3] = target: cyanide dihydratase CynD from Bacillus safensis PER-URP-08 (Bacillus safensis PER-URP-08) (UniProt P0DXY3); remark: listed apart in the source
substance,measurement,setting,value
cyanide dihydratase CynD from Bacillus safensis PER-URP-08 (from UniProt P0DXY3 1-330) (enzyme),stoichiometry N,[1],3 to 5 mer
same,stoichiometry N,[2],24 to 48 mer
same,stoichiometry N,[3],4 to 6 mer
